# Test: soluble on expression in E. coli; label from the status in PepcDB or PDB records
row,Sequence,soluble on expression in E. coli
1,MASGPHSTATAAAAASSAAPSAGGSSSGTTTTTTTTTGGILIGDRLYSEVSLTIDHSLIPEERLSPTPSMQDGLDLPSETDLRILGCELIQAAGILLRLPQVAMATGQVLFHRFFYSKSFVKHSFEIVAMACINLASKIEEAPRRIRDVINVFHHLRQLRGKRTPSPLILDQNYINTKNQVIKAERRVLKELGFCVHVKHPHKIIVMYLQVLECERNQTLVQTAWNYMNDSLRTNVFVRFQPETIACACIYLAARALQIPLPTRPHWFLLFGTTEEEIQEICIETLRLYTRKKPNYELLEKEVEKRKVALQEAKLKAKGLNPDGTPALSTLGGFSPASKPSSPREVKAEEKSPISINVKTVKKEPEDRQQASKSPYNGVRKDSKRSRNSRSASRSRSRTRSRSRSHTPRRHYNNRRSRSGTYSSRSRSRSRSHSESPRRHHNHGSPHLKAKHTRDDLKSSNRHGHKRKKSRSRSQSKSRDHSDAAKKHRHERGHHRDRRERSRSFERSHKSKHHGGSRSGHGRHRR,not soluble
2,MASGRQSGRDTEEYGGLSNSGISSGSHVKDTAYYERRRKNNAAAKKSRDRRRIKEDEIAIRAAYLERQNIELLCRIDALEVQLAAITSAKVTTAAAAAAALEHHHHHH,not soluble
3,MASIFESPELIGAFIGEVEEQLQLLENNVVELEKNGGTAEVVQELFRAAHTLKGSSATMGFEKMKTLTHEMENVLDKIRNGLLEISRPVIDVLFECLDCLNMLKEDFVSDSNNVKTEITPVITKLKEISSENETNNQNSDSDKAENLETGRREQPIFVLDEKQQEQINQALGIGQNVLVCEVEILEDSQMKSVRACLIMNFLNEWGTVINMVPNVMEIPIDSDVGKVAFLVVTQMSADELRQKVQNDLMDIKEVRVFPYFIQNSISQTKDGETGVRDKDNSSGVKTATEEKRVVHTVRIDVDRLERMMDLVGELVIEQIRIAQVANNLYNQYPSDETVDDLIGISNRVSILINELQEGIMKTRMIPVQQLFSRFPRMVRDLSVSLNKEVNLVLEGGETEIDRTIMEEMSDPLIHLIRNAIDHGIENPEIRKKLGKPEQGTLRVTALPEDSNVIITVEDDGAGIDPQEIKQSAIKKRIVTEQEANNMTEQQLINLIFQTGFSTSQKVSDVSGRGVGMDIVKTHIEKLNGIIDVETCAGSGTKFIIKLPIKLPLTLAILKGLLVKISNETYALPMNNVVEIVRKPKNEIESINGQAVAVIRDRAIPLIWLHDYFGIPRGNERKNTLIVLLGIAEKRFGLVVDELIGNQEIVVTNLGSYIGKVEGISGATILGDRSVACILDVVGIAKIVNSRKVSRIDVEYSKQ,not soluble
4,MASKASGGSTRNGRDSISKRLGVKRYDGQFVKAGNIIVRQRGTRIYPGKNVGMGSDYTLFALKDGYVYFETRRKKKFVSVLSPEEWEKVMAQKNGKVH,not soluble
5,MASKIEPGSPQPIYLDVQATAPMDPRVVDAMLPYMINDFGNPHSRTHSYGWKAEEGVEQAREHVANLIKADPRDIIFTSGATESNNLAIKGVAKFRKQSGKNHIITLQTEHKCVLDSCRYLENEGFKVTYLPVDKGGMVDMEQLTQSITAETCLVSIMFVNNEIGVMQPIKQIGELCRSKGVYFHTDAAQATGKVPIDVNEMKIDLMSISAHKIYGPKGAGALYVRRRPRVRIEAQMSGGGQERGLRSGTVAAPLCIGLGEAAKIADKEMAMDKAHVERLSQMLINGISDKLPHIIRNGDARHAYPGCVNLSFAYVEGESLLMALKSIALSSGSACTSASLEPSYVLRAIGSEEDLAHSSIRFGLGRFTTDEEVKHTIDLCIRETNRLRDLSPLWEMVQEGIDLKSIQWTQH,not soluble
6,MASKRIIRMSDLLHTTPVFNRGYRFQWEQAQQSYVILYPEGLVRLNESATLILKQIDGKLTVHDIIQNLSAQFPDATGLDQDIVEFLKQAESRQWICLQ,not soluble
7,MASLLNARTAVITGGAQGLGLAIGQRFVAEGARVVLGDVNLEATEVAAKRLGGDDVALAVRCDVTQADDVDILIRTAVERFGGLDVMVNNAGITRDATMRTMTEEQFDQVIAVHLKGTWNGTRLAAAIMRERKRGAIVNMSSVSGKVGMVGQTNYSAAKAGIVGMTKAAAKELAHLGIRVNAIAPGLIRSAMTEAMPQRIWDQKLAEVPMGRAGEPSEVASVAVFLASDLSSYMTGTVLDVTGGRFI,soluble
8,MASMAAELRPSDGGSSLHMLDSLLMMGLSSGGGVGGGGSSQSQILDSAGAAELAALLLPQHSNDPLHLMSTGDAALGLAGPMAAAEHHQHHPHHQHHSVPATAGFPSQTPPPPLFSNATAGAAPATRVRAAGSCGSGGVAGGTTSHSSEDGVFHSADPHHHHQQHLQQPQPQQQQQQQQQPQHQQQQQQQQQQQPQQPQFHHHQPQQHQAQQAVAATAPAAAADHLFLPPAAAGAAGQQQAGWGAATGAHLFHSDAPNRPNGPKTPTNRNGYAMKPPPPAAAAAVMSGHAMAASGVVAGRGGGGGGCDAEEDELTFAAAAAAEVSSDDEVMGGRGGAVMGRAAVGGFRTPAPAPASAGAAVNVAAAAPAAPAGTWVPKGKPAVEVSAWAPAPAAPVAAAAAAAVAVSPTVAAFAAAPVVEAVALVRSQQRQEQEHQLVQVAAAEQQDQQQAKRPVRSSRRRAQESQQAAAEAQQAAQQAAAAQQQQQHTGSGNIVGDKQGKPQGGLQQGRPVATQPSPPPPAVATAAAAAAATAPVATAPVATVATAATADTMPQRLTAVQQHEAYPAVVRGTLDVRKACLPRFPLVAREQAEAELQSVATAALQQAAAAPGASAAVTAAAAAAAAAATAAGEGKAGEGKAATARRGGRGAAEAEAAAALPAVGASGNPGLDEAMGAYVRVAALYGDEAAAAVAECESLMADFDNKLQLGNLATTFAAAASPTAAASGRARGGARSGGVGGGGTKRVASGANASGANSSGMSGGGGGDSAGAEAAAGDEMEWAPGATSVDTATGGADDEDGEEEEGQQPGGAAAAAAVAAAGGEASQLAASIAATYGSQLVQVAASLAQRPKVGKLPPAATQLLKGWWDDNFVWPYPSEEDKKQLGEAAALNNTQINNWFINQRKRHWHKHFPNRRPPSTREEAERLLRAAGAI,not soluble
9,MASNVSLTGLAHDLKQRAENHPPIRIGLIGCGEMGTDLLSSIAHMDGITVAAVATRTPSRIFDAARLAYGEEGHVREVENASALTRTIEKGLIAATNDIDLVLRHEQIDIIVDATGYPEAGAEIGFKALENNKNLVMMNVEADVTIGAYLKHEAEKQGLIYTLGAGDEPTSCMELIEFVSALGHKI,not soluble
10,MASSAVSLQSISMTTLNNLSCNQQFHRSSLLGSSKSFQNLGISSNGSDFSYPSSFTAKKNLTASRALSQNGNIENPRPSKVQELSVYEINELDRHSPKILKNAFSLMFGLGDLVPFTNKLYTGDLKKRVGITAGLCVVIEHVPEKKGERFEATYSFYFGDYGHLSVQGPYLTYEDSFLAITGGAGIFEGAYGQVKLQQLVYPTKLFYTFYLKGLANDLPLELTGTPVPPSKDIEPAPEAKALEPSGVISNYTN,soluble
11,MASSLNEDPEGSRITYVKGDLFACPKTDSLAHCISEDCRMGAGIAVLFKKKFGGVQELLNQQKKSGEVAVLKRDGRYIYYLITKKRASHKPTYENLQKSLEAMKSHCLKNGVTDLSMPRIGCGLDRLQWENVSAMIEEVFEATDIKITVYTL,soluble
12,MASYAELFDIGEDFAAFVGHGLATEQGAVARFRQKLESNGLPSALTERLQRIERRYRLLVAGEMWCPDCQINLAALDFAQRLQPNIELAIISKGRAEDDLRQRLALERIAIPLVLVLDEEFNLLGRFVERPQAVLDGGPQALAAYKAGDYLEHAIGDVLAIIEGAAR,soluble
13,MASYSDIVDSVRKCQFSPLYLLAGEEPFYIDELATLLETHVVPVDEWDFNRVILYGDKTSVADIANEARRFPMMGRRQLIVVREAQLVDNIDLLEAHYGTFPDTTILVIAYKKKPDKRKAFYTKAEKFGKVFVSETIPDYKMPDFILSAAAGKKLSVSPEVAYMLADYLGNDLEKLMNELDKLILITQDSRGVVTSEIVEQHIGVSKSFNNFELLRAIVNRETGKTFRIAHYFARNEKEHPIQATLPVLFNYFSNLMIVCYLPQKKPDAIMKALSIRNFQVRDYMTGLKMYSTRKVFDIIHEIRMTDARSKGVDTTGTFAGSGDLLRELLHFIFH,not soluble
14,MASYSQFLTKAQEDELRSIANAIVTPGKGILAADESTGSMDKRLNSIGLENTEENRRKYRQLLFTAGADLNKYISGVIMFHETFYQKTDDGKPFTALLQEQGIIPGIKVDKGVVPMAGTIGEGTTQGLDDLNARCAQYKKDGAQFAKWRCVHKISSTTPSVTALKEIASNLARYASICQQNGLVPIVEPEILPDGEHCLARGQKITETVLSYVYHALNEHHVFLEGTLLKPNMVTSGQSFTGEKPSNADIGLATVTALQRGVPSAVPGVVFLSGGQSEEDATLNLNAINQVSGKKPWALTFSYGRALQASCLAKWAGKDENIAAAQEVLLHRAQVNSLASVGKYTGDASADAAASQSLFVANHSY,soluble
15,MATAADSVYSIESPKAAKSLMLDVVHAGKRLVAVGDRGHILYSDDQGQTWVQAKVPTRQLLTAVYFVDDKRGWAVGHDAQVLASSDGGATWTRQFQDLKREAPLLDVWFKDTQTGYAVGAYGALLETSDGGQHWEDVSDRLDNEDQFHLNAIAQVKDSGLFIVGEQGSMFRSADDGQTWERLEGPYEGSLFGVIGTGQPATLLVYGLRGNLYRSTDFGSTWEQVELEHHHHHH,soluble
16,MATAATTASRSTTAGTSSTMGTPATTSAASRTTTTGTTTTMGQLIT,not soluble
17,MATADVKSTVPHMDMDRGGAFDFSNCIRNQAMCKMGGKAPKLTSTGTTIVAVAFKGGLVMGADSRATAGNIIADKHCEKVHKLTESIYACGAGTAADLDQVTKMLSGNLRLLELNTGRKARVITALRQAKQHLFNYQGYIGAYLLIGGVDPTGPHLYMCSANGTTMAFPFTAQGSGSYAAITILERDFKVDMTKDEAEKLVQRALEAGMHGDNASGNSLNLVIIEPSETVFKGPIVPEFCKRPEPNDLVYKFQAGATKVLKHKTYKYDVVESMDITH,not soluble
18,MATGQDRVVALVDMDCFFVQVEQRQNPHLRNKPCAVVQYKSWKGGGIIAVSYEARAFGVTRSMWADDAKKLCPDLLLAQVRESRGKANLTKYREASVEVMEIMSRFAVIERASIDEAYVDLTSAVQERLQKLQGQPISADLLPSTYIEGLPQGPTTAEETVQKEGMRKQGLFQWLDSLQIDNLTSPDLQLTVGAVIVEEMRAAIERETGFQCSAGISHNKVLAKLACGLNKPNRQTLVSHGSVPQLFSQMPIRKIRSLGGKLGASVIEILGIEYMGELTQFTESQLQSHFGEKNGSWLYAMCRGIEHDPVKPRQLPKTIGCSKNFPGKTALATREQVQWWLLQLAQELEERLTKDRNDNDRVATQLVVSIRVQGDKRLSSLRRCCALTRYDAHKMSHDAFTVIKNCNTSGIQTEWSPPLTMLFLCATKFSASAPSSSTDITSFLSSDPSSLPKVPVTSSEAKTQGSGPAVTATKKATTSLESFFQKAAERQKVKEASLSSLTAPTQAPMSNSPSKPSLPFQTSQSTGTEPFFKQKSLLLKQKQLNNSSVSSPQQNPWSNCKALPNSLPTEYPGCVPVCEGVSKLEESSKATPAEMDLAHNSQSMHASSASKSVLEVTQKATPNPSLLAAEDQVPCEKCGSLVPVWDMPEHMDYHFALELQKSFLQPHSSNPQVVSAVSHQGKRNPKSPLACTNKRPRPEGMQTLESFFKPLTH,soluble
19,MATIGLDRLYYAKITENENGEETYATPVPLAKAITAELSVELAEATLYADDGAAEVVKEFQSGTLTLGVADIGVDAAEVLTGATLDDNKVLISTSEDGGAPVAIGFRAKKANGKYRYFWLYRVKFGIPATNLQTKGDSITFSTPTIEGTVMRRNKPDGLEHHHHHH,soluble
20,MATKKCINGHQYDSSIYGDNCPFCPSSHSTRVLDDDTTTGKTQVLGGNMNAETDTIDLGKSGQNNPGGATVIRHVNPTGGTGMASDNRRLVGLLVSYDQNPMGEVYKIYEGRNVIGRAATSDIPIPGDSNMSSQHLLILYREAEGIFWAADQNSSNGTYINGTFVGDRVQLYTNDVIVLGATKMIFLAIPQ,not soluble
